Assay results taken from publication PMC3200314.

Biological target: recombinant neuraminidase ectodomain of A/California/04/2009 (pH1N1) (influenza A virus A/California/04/2009 (H1N1))
Experiment: SEC

In the case of “recombinant neuraminidase ectodomain of A/California/04/2009 (pH1N1) (domain or fragment)”, the stoichiometry N is reported as 4.
